The text below walks through data of paper PMC10806771.

pIC50: −log10 of the molar value.

The test deals with trastuzumab (human). As to the kind of experiment: fluorescence polarisation. On the technique in general: Polarisation of emitted light reports the rotation of a fluorescent probe.
One may read the pIC50 as −log10 of the IC50, conventionally taken in molar units. Read a high pIC50 as a low IC50. As to Fc-III V10K (peptide), the negative-log IC50 (pIC50) was under 5.52.

Fc-III W4K (peptide): the pIC50 is under 5.52.

For the substance Fc-III W11K (peptide), the pIC50 was under 5.52.
